From US20110160440A1 (GENENCOR INTERNATIONAL, published 2011)
Numbering of substitutions follows the chain as printed.

B1: CAB1.7 (clone pSW155.17) (scFv)
chain: QVQLQQSGAELVKSGGSVKLSCTASGFNIKDSYMHWVRQGPEQGLEWIGWIDPENGDTEYAPKFQGKATFTTDTSSNTAYLQLSSLTSEDTAVYYCNEGLPLGAIYNDYWGQGTTVTVSSGGGGSGGGGSGGGGSENVLTQSPAIVSASPGEKVTITCSASSAVYAMHWFQQKPGTSPKLVIYDTSNLASGVPARFSGSGSGTSYSLTISRMEAEDAATYYCQQRDSYPLTFGAGTKLELDRAATPVSEKQLAEVVANTITPLMKAQSVPGMAVAVIYQGKPHYYTFGKADIAANKPVTPQTLFELGSISKTFTGVLGGDAIARGEISLDDAVTRYWPQLTGKQWQGIRMLDLATYTAGGLPLQVPDEVTDNASLLRFYQNWQPQWKPGTTRLYANASIGLFGALAVKPSGMPYEQAMTTRVLKPLKLDHTWINVPKAEEAHYAWGYRDGKAVRVSPGMLDAQAYGVKTNVQDMANWVMANMAPENVADASLKQGIALAQSRYWRIGSMYQGLGWEMLNWPVEANTVVETSFGNVALAPLPVAEVNPPAPPVKASWVHKTGSTGGFGSYVAFIPEKQIGIVMLANTSYPNPARVEAAYHILEALQ
notes: scFv-BLA fusion
B2: NA08.1 (scFv)
chain: QVQLQQSGAELVKSGGSVKLSCTASGFNIKDSYMHWVRQGPEQGLEWIGHIDPENGDTEYAPKFQGKATFTTDTSSNTAYLQLSSLTSEDTAVYYCNEGTPTGPYYFDYWGQGTTVTVSSGGGGSGGGGSGGGGSENVLTQSPAIVSASPGEKVTITCSASSSVSAMHWFQQKPGTSPKLVIYSTSNLASGVPARFSGSGSGTSYSLTISRMEAEDAATYYCQQRSSYPLTFGAGTKLELKRAATPVSEKQLAEVVANTITPLMKAQSVPGMAVAVIYQGKPHYYTFGKADIAANKPVTPQTLFELGSISKTFTGVLGGDAIARGEISLDDAVTRYWPQLTGKQWQGIRMLDLATYTAGGLPLQVPDEVTDNASLLRFYQNWQPQWKPGTTRLYANASIGLFGALAVKPSGMPYEQAMTTRVLKPLKLDHTWINVPKAEEAHYAWGYRDGKAVRVSPGMLDAQAYGVKTNVQDMANWVMANMAPENVADASLKQGIALAQSRYWRIGSMYQGLGWEMLNWPVEANTVVETSFGNVALAPLPVAEVNPPAPPVKASWVHKTGSTGGFGSYVAFIPEKQIGIVMLANTSYPNPARVEAAYHILEALQ
B3: NA08.3 (scFv)
chain: B2 chain with H50W, A166Y, S190D, S226D
B4: NA08.4 (scFv)
chain: B2 chain with H50W, T100D, A166Y, S190D
B5: NA08.9 (scFv)
chain: B2 chain with H50W
B6: NA08.12 (scFv)
chain: B2 chain with H50W, T102H, S226D
B7: NA08.13 (scFv)
chain: B2 chain with H50W, Q65H, A166Y, S184D, S226D
B8: NA08.14 (scFv)
chain: B2 chain with H50W, P101D, A166Y
B9: NA08.17 (scFv)
chain: B2 chain with A166Y, S184D
B10: NA08.24 (scFv)
chain: B2 chain with H50W, T102D, A166Y, S226D
B11: NA08.45 (scFv)
chain: B2 chain with H50W, T102D
B12: NA08.51 (scFv)
chain: B2 chain with H50W, P104H
B13: NA08.64 (scFv)
chain: B2 chain with H50W, Q65D
B14: NA05.6 (CAB1.1) (scFv)
chain: B2 chain with Q3K, V37L, H50W, V146M, A166Y
notes: also called pNA05.6
B15: NA05.8 (scFv)
chain: B2 chain with Q3K, G16T, V37L, H50W, V146M, A166Y, F170Y, V181W, A234G
B16: NA05.9 (scFv)
chain: B2 chain with K13R, S14P, G16T, E42G, H50W, E136Q, A166Y, A234G
B17: NA05.10 (scFv)
chain: B2 chain with K13R, G16T, H50W, V146M, A166Y, F170Y
B18: NA05.12 (scFv)
chain: B2 chain with K13R, S14P, G16T, H50W, A166Y, V181W
B19: NA05.15 (scFv)
chain: B2 chain with Q3K, K13R, G16T, V37L, H50W, A166Y, F170Y, V181W, A194D
B20: clone pSW129.5 (scFv)
chain: B2 chain with H50W, T100L, T102L, A166Y, S184D, S226D
B21: clone pSW134.1 (scFv)
chain: B2 chain with H50W, T100L, F107N, A166Y, S184D, S226D
B22: NA08.15 (CAB1.4) (scFv)
chain: B2 chain with H50W, A166Y, S184D, S226D
B23: NA06.2 (scFv)
chain: B2 chain with Q3K, E42G, H50W, V146M, A166Y, A194D
B24: NA06.4 (scFv)
chain: B2 chain with Q3K, H50W, A166Y
B25: NA06.10 (scFv)
chain: B2 chain with Q3K, H50W, A166Y, A194D
B26: NA06.11 (scFv)
chain: B2 chain with H50W, V146M, A166Y, A194D
B27: NA06.12 (scFv)
chain: B2 chain with Q3K, H50W, E136Q, V146M, A166Y

Molecular target: T1, CEA (carcinoembryonic antigen, Biodesign Intl., Saco, Me.) (UniProt P06731 35-685)
T1 construct: also called immobilized CEA
T1 sequence: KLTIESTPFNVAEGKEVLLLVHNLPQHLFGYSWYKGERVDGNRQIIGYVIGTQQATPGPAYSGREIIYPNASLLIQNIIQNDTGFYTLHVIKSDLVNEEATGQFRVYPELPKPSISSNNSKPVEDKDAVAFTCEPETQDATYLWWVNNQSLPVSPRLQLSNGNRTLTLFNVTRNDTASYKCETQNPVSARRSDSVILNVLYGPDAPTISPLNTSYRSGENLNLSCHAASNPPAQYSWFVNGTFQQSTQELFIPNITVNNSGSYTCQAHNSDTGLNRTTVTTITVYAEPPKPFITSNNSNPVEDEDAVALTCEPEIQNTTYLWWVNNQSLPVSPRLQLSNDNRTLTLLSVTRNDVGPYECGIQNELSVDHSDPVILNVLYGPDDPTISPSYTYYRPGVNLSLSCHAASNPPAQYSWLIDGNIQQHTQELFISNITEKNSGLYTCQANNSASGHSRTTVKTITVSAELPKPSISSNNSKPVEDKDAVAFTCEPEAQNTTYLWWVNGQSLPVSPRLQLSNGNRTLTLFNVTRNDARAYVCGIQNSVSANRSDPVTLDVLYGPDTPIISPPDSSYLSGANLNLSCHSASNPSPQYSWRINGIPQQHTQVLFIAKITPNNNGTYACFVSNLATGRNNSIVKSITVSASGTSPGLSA
Assay: screen of library SW155

| Binder | binding result |
| --- | --- |
| B1 | binds |

Molecular target: T1, CEA (carcinoembryonic antigen, …)
Assay: CEA-coated plate at pH 6.5 and pH 7.4, bound BLA activity

| Binder | binding result |
| --- | --- |
| B2 | binds |
| B3 | binds |
| B4 | binds |
| B5 | binds |
| B6 | binds |
| B7 | binds |
| B8 | binds |
| B9 | binds |
| B10 | binds |
| B11 | binds |
| B12 | binds |
| B13 | binds |

Molecular target: T1, CEA (carcinoembryonic antigen, …)
Assay: CEA-coated plate, bound BLA activity (nitrocefin), cell lysate

| Binder | binding result |
| --- | --- |
| B14 | binds |
| B15 | binds |
| B16 | binds |
| B17 | binds |
| B18 | binds |
| B19 | binds |

Molecular target: T1, CEA (carcinoembryonic antigen, …)
Assay: screen of H3 site saturation mini-libraries for improved affinity

| Binder | binding result |
| --- | --- |
| B20 | binds |
| B21 | binds |

Molecular target: T1, CEA (carcinoembryonic antigen, …)
Assay: CEA-coated plate, binding curves at pH 6.5 and pH 7.4, bound BLA activity

| Binder | binding result |
| --- | --- |
| B22 | binds |

Molecular target: T1, CEA (carcinoembryonic antigen, …)
Assay: CEA-coated plate after thermolysin treatment of the lysate, bound BLA activity

| Binder | binding result |
| --- | --- |
| B23 | binds |
| B24 | binds |
| B25 | binds |
| B26 | binds |
| B27 | binds |
